We go through 16 molecules from US20160032001A1 (APEXIGEN, published 2016).

A word on the Kd: it is the constant that tells how readily two partners part at equilibrium. A higher Kd goes with a looser complex. As usually defined, the koff is the first-order rate constant of dissociation. As a reminder, the kon is a measure of how fast the partners come together. Read a low kon as slow association. For orientation: IC50 means the concentration that inhibits the measured activity by half. A higher IC50 goes with weaker potency. Usually EC50 stands for the concentration needed to bring the measured effect to its halfway point. A high value points to lower potency in that assay.

Like-named read-outs stand apart in the source and are kept apart here.

In test [1] the target is T1, human RANKL protein (human, UniProt O14788 140-317, limits assumed).
T1 sequence (looked up): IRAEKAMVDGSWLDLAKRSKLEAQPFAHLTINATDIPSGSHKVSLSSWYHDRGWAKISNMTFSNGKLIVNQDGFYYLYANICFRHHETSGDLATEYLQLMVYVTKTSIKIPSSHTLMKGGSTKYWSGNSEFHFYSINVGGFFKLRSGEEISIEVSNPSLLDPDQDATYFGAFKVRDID
The test can be described thus: cell-based or functional assay.

Test [2] deals with T1, human RANKL protein. The test can be described thus: surface plasmon resonance. Background: SPR reads the build-up and loss of mass on a sensor chip optically.
For test [3], the target named is T1, human RANKL protein. The test can be described thus: competition ELISA: RANKL (0.5 ug/ml) pre-incubated with the antibody, then binding to coated human RANK (8 ug/ml) detected; blocked partner RANK.
Test [4] concerns the target T2, RANKL expressed on the surface of 293 cells (UniProt O14788 1-317, limits assumed).
T2 construct: whole, on cells; also called RANKL-transfected 293 cells; cells expressing RANKL
T2 sequence (looked up): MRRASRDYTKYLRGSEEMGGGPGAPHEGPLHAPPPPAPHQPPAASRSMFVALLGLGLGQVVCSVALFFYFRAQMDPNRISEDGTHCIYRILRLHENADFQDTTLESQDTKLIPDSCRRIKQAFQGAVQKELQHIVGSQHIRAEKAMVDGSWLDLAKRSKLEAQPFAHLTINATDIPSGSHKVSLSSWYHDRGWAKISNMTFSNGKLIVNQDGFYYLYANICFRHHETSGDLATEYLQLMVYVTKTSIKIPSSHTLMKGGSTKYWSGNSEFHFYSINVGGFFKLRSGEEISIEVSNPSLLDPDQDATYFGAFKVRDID
The test can be described thus: flow cytometry (MFI) on RANKL-transfected 293 cells.

In test [5] the target is T1, human RANKL protein. Briefly: competition ELISA: RANKL (0.5 ug/ml) pre-incubated with the antibody, then binding to coated human RANK (8 ug/ml) detected; blocked partner RANK. This is another data set of the same source. (In general: ELISA stands for enzyme-linked immunosorbent assay.)
The target in test [6] is T2, RANKL expressed on the surface of 293 …. Briefly: flow cytometry (MFI) on RANKL-transfected 293 cells. This is another data set of the same source. (In general: Flow cytometry measures light scatter and fluorescence of single cells or particles in a stream.)
For test [7], the target named is T1, human RANKL protein. The test can be described thus: competition ELISA: RANKL (0.5 ug/ml) pre-incubated with the antibody, then binding to coated human RANK (8 ug/ml) detected; blocked partner RANK. This is another data set of the same source.
Test [8] deals with T2, RANKL expressed on the surface of 293 …. Briefly: flow cytometry (MFI) on RANKL-transfected 293 cells. The source holds these as a separate data set.

B1: clone 91 rabbit anti-RANKL antibody (antibody, V domains shown)
VH: QSLEESGGRLVKPDETLTLTCTVSGSSLYNYEINWVRQAPGKGLEWIGYIDVGSGTWYASWAKGRFTISKTSTTVDLKITSPTTEDTATYFCTRKYNPMDLWGPGTLVTVSS
VL: DMTQTPASVEVAVGGTVTIKCQASQNIGSNLAWYQQKPGQPPKLLIYSTSTVASGVPSRFKGSGFGTQFTLTISGVQCDDAATYYCQQGYSAGNVNNPFGGGTEVVVK
For B1, in test [1], the “IC50 in a RAW cell assay (TRAP activity, OD 405 nM)” value was determined as 0.00488 µg/mL. In test [2], this molecule had a Kd of 0.589 nM, a koff of 0.000273 s⁻¹ and a kon of 464000 M⁻¹ s⁻¹. This molecule had an IC50 in test [3] of 0.0645 µg/mL. In test [4], this molecule yielded an EC50 of 0.0664 µg/mL.

B2: clone 256 rabbit anti-RANKL antibody (antibody, V domains shown)
VH: QSLEESGGRLVTPGTPLTLTCTVSGFSLSKYEINWVRQAPGKGLEWIGYIDVGSGTWYASWAKGRFTISKTSTTVALRITSPTTEDTATYFCSRQYNPMDLWGPGTLVTVSS
VL: DMTQTPASVEAAVGGTVTIKCQASQNIGSNLAWYQQKPGQRPKLLIYSASTLASGVPSRFKGSGSGTQFTLTISGVQCDDAATYYCQQGYSVGNVNNAFGGGTEVVVK
In turn, B2 came in with an IC50 in test [5] of 0.0508 µg/mL. Also, in test [6], the 50% effective concentration (EC50) was determined as 0.135 µg/mL.

B3: clone 37 rabbit anti-RANKL antibody (antibody, V domains shown)
VH: QSVEESGGRLVTPGTPLTLTCTVSGFSLSNDVMSWVRQAPGKGLEWIGYIWSGGSPYYANWAKGRFTISKSSSTTVDLKITSPTTEDTAAYFCARGFGSSGLNIWGPGTLVTVSL
VL: DMTQTPASVEVAVGGTVTIKCQASQSIGSNLAWYQQKPGQSPKLLIYSASILASGVPSRFKGSGSGTQFTLTISGVQCDDAATYYCQQGYSVGNIDNAFGGGTEVVVK
In turn, B3 came in with an IC50 in test [3] of 0.0436 µg/mL. In test [4], this molecule came in with an EC50 of 0.137 µg/mL.

B4: clone 220 rabbit anti-RANKL antibody (antibody, V domains shown)
VH: QSLEESGGRLVTPGTPLTLTCTVSGFSLSKYEINWVRQAPGKGLEWIGYIDVGSGTWYASWAKGRFTISKTSTTVALRITSPTTEDTATYFCSRQYNPMDLWGPGTLVTVSS
VL: DMTQTPASVEAAVGGTVTIKCQASQNIGSNLAWYQQKPGQRPKLLIYSASTLASGVPSRFKGSGSGTQFTLTISGVQCDDAATYYCQQGYSVGNVNNAFGGGTEVVVK
Take B4: the half-maximal inhibitory concentration (IC50) in test [5] was found to be 0.0648 µg/mL. In test [6], this molecule had an EC50 of 0.153 µg/mL.

B5: clone 270 rabbit anti-RANKL antibody (antibody, V domains shown)
VH: QSVEESGGRLVTPGTPLTLTCTVSGFSLSSDVMSWVRQAPGKGLDWIGYIWSGGRPYYANWAKGRFTISKSSSTTVDLKITSPTTEDTAAYFCARGFGSSGLNIWGPGTLVTVSL
VL: DMTQTPASVEVAVGGTVTIKCQASQNIGYNLAWYQQKPGQPPKLLIYGASTLASGVPSRFKGSGSGTQFTLTISGVQCDDAATYYCQQGYSVSNIDNAFGGGTEVVVK
In turn, B5 had an IC50 in test [5] of 0.058 µg/mL. Also, the EC50 in test [6] amounted to 0.0751 µg/mL.

B6: clone 227 rabbit anti-RANKL antibody (antibody, V domains shown)
VH: QSLEESGGRLVKPDETLTLTCTVSGFSLYNYEINWVRQAPGKGLEWIGYIDVGSGTWYASWAKGRFTISKTSTTVDLKITSPTTEDTATYFCTRKYNPMDLWGPGTLVTVSS
VL: DMTQTPASVEVAVGGTVTIKCQASQNIGSNLAWYQQKPGQPPKLLIYSTSTVASGVPSRFKGSGFGTQFTLTISGVQCDDAATYYCQQGYSAGNVNNPFGGGTEVVVK
B6 gave an IC50 in test [5] of 0.0643 µg/mL. The EC50 in test [6] stood at 0.0858 µg/mL.

B7: clone 7 rabbit anti-RANKL antibody (antibody, V domains shown)
VH: QEQLKESGGGLVTPGGTLTLTCTASGFSLTTNGMSWVRQAPGKGLEWIGYIYSGGSPYYANWAKGRFTISKTSSTTVDLKMTSLTTEDTATYFCARHLSGGGWYLDIWGPGTLVTVSL
VL: DMTQTPASVEVAVGGTVTINCQASQNIGSNLAWYQQKPGQPPKLLIYGASTLASGVSSRFKGSGSGTQFTFTISDVECTDPATYYCQQAYSISNVDNPFGGGTEVVVK
Consider B7, for which, in test [3], the half-inhibitory concentration (IC50) turned out to be 0.0699 µg/mL. Also, in test [4], it took 0.248 µg/mL to reach a half-maximal effect (EC50).

B8: clone 246 rabbit anti-RANKL antibody (antibody, V domains shown)
VH: QSVKESGGGLVTPGGTLTLTCTASGLSLSGNGMSWVRQAPGKGLEWIGYIYSGSSPYYASWAKGRFTISKTSSTTVDLKMTSLTTEDTATYFCARHTSGGGWYLDIWGPGTLVTVSL
VL: DMIQTPASVEVAVGGTVTINCQASQSIGSNLAWYQQKPGQPPKLLIYSASTLASGVSSRFKGSGSGTDYTLTISDVECTDAATYYCQQAYSISNVENPFGGGTEVVVK
Take B8: the IC50 in test [5] worked out at 0.486 µg/mL. In test [6], this molecule yielded an EC50 of 1 µg/mL.

B9: clone 318 rabbit anti-RANKL antibody (antibody, V domains shown)
VH: QDQLKESGGGLVTPGGTLTLTCTASGFSLGSNGMSWVRQAPGKGLEWIGYIYSGSSPYYASWAKGRFTISKTSSTTVDLKMTSLTTEDTATYFCAGHAKGGGWYLDIWGPGTLVTVSL
VL: DMTQTPASVSAAVGGTVTINCQASQSIGSNLGWYQQKPGQPPKLLIYGASTLASGVSSRFKGSGSGTHFAFTISDVECTDAATYYCQQAYSVGNVDNAFGGGTEVVVK
As for B9, the IC50 in test [7] turned out to be 0.0624 µg/mL. This molecule also registered an EC50 in test [6] of 0.164 µg/mL.

B10: clone 238 rabbit anti-RANKL antibody (antibody, V domains shown)
VH: QEQLKESGGGLVTPGGTLTLTCTASGFSLNTNAMSWVRQAPGKGLEWIGYIYSGGSPYYANWAKGRFTISRTSTTVHLKMTSLTTEDTATYFCASHTSGGGWYLDIWGPGTLVTVSL
VL: DMIQTPASVEVAVGGTVTINCQASQNIGSNLAWYQQKPGQPPKLLIYGTSTLASGVSSRFKGSGFGTQFTFTISDVECTDAATYYCQQAYSTSKIDNAFGGGTEVVVK
The molecule B10 yielded an IC50 in test [5] of 0.0596 µg/mL. In test [6], this molecule displayed an EC50 of 0.2 µg/mL.

B11: clone 565 rabbit anti-RANKL antibody (antibody, V domains shown)
VH: QEDLKESGGGLITPGGTLTLTCTGSGFSLSSDGMSWVRQAPGKGLEWIGYIYSGSSPYYANWAKGRFTISKTSSTTVDLKMTSLTTEDTATYFCARHLSGGGWYLDIWGPGTLVTVSL
VL: DMIQTPASVSEPVGGTVTINCQASQNIGSNLAWYQQKPGQPSKLLIYKASTLASGVPSRFKGSGSGTDFTLTISDLECADAATYYCQQAYTISNVDNAFGGGTEVVVK
B11 registered an EC50 in test [8] of 0.0831 µg/mL.

B12: clone 379 rabbit anti-RANKL antibody (antibody, V domains shown)
VH: QEQLKESGGGLVTPGGTLTLTCTASRFSLINIGMSWVRQAPGRGLEWIGYIYSGGSPYYANWAKGRFTISRTSTTVDLKMTSLTTEDTATYFCARHASDGGWYLDIWGPGTLVTVSL
VL: DMIQTPASVEVAVGGTVTINCQASQSIGSNLAWYQQKPGQPPKLLIYLASTLPSGVPSRFKGSGSGTQFTFTISDVECTDAATYYCQQAYTASNVDNAFGGGTEVVVK
With B12, the IC50 in test [7] was determined as 0.0614 µg/mL. This molecule gave an EC50 in test [6] of 0.221 µg/mL.

B13: clone 68 rabbit anti-RANKL antibody (antibody, V domains shown)
VH: QEQLKESGGGLVKPDESLTLTCTASGFSLSSNGMSWARQAPGKGLEWIGYIYAGSSPYYANWAKGRFTISKTSSTTVDLKVTSLTTEDTATYFCARHASGGGWYLAIWGPGTLVTVSL
VL: DMIQTPASVEVAVGGTVTIGCQASQSIGSNLGWYQQKPGQPPKLLIYSASTLASGVSSRFKGSGSGTEFTLTISDVECDDAATYYCQQAYSVSNVDNAFGGGTEVVVK
B13 yielded an IC50 in test [3] of 0.0766 µg/mL. In test [4], this molecule gave an EC50 of 0.185 µg/mL.

B14: clone 299 rabbit anti-RANKL antibody (antibody, V domains shown)
VH: QSLEESGGRLVTPGTPLTLTCTVSGIDLSSSLMTWVRQAPGKGLEWIGYIWSGGAPFYASWAKGRFTISKTSSTTVDLKMTSLTTEDTATYFCAARYTDSGFDALDPWGPGTLVTVSS
VL: DMTQTPASVEAAVGGTVTIKCQASQSIGSYLSWYHQKPGQPPKLLIYRASTLASGVPSRFKGSGSGTQFTLTISDLECADAATYYCQQGYSANVDNAFGGGTEVVVK
Molecule B14 registered an IC50 in test [7] of 0.0907 µg/mL. The molecule also came in with an EC50 in test [6] of 0.207 µg/mL.

B15: clone 130 rabbit anti-RANKL antibody (antibody, V domains shown)
VH: QSVEESGGRLVTPGTPLTLTCTVSGFSLSSGVVSWVRQAPGKGLEWIGYAWSGGATYYASWAKGRFTISKSSTTVDLKITSPTTADTATYFCARGYNGMDPWGPGTLVTVSS
VL: DMTQTPASVEVAVGGTVTIKCQASQNIGSNLAWYQQKPGQPPKLLIYKASTLASGVPSRFRGSGSGTEFTLAISDLECADAATYYCQQGYTTKDLVNPFGGGTEVVVK
The molecule B15 gave an IC50 in test [3] of 0.078 µg/mL. Moreover, the EC50 in test [4] amounted to 0.21 µg/mL.

B16: clone 147 rabbit anti-RANKL antibody (antibody, V domains shown)
VH: QSVEESGGRLVTPGTPQTLTCTVSGFSLSTDVVSWVRQAPGKGLEWIGYTWNGGATYYASWAKGRFTFSKTSTTVDLKITSPTTEDTATYFCARGYNGMDPWGPGTLVTVSS
VL: DMTQTPASVEVAVGGTVTIKCQASQNIGSNLAWYQQKPGQPPKLLISKASTLASGVPSRFKGSGSGTEFTLAISDLECADAATYYCQQGYTTKNVVNPFGGGTEVVVK
B16 showed an IC50 in test [3] of 0.0706 µg/mL. The EC50 in test [4] came to 0.0721 µg/mL.
